These results are taken from patent US20210024646A1 (published 2021).

Changes are numbered by the printed parent chain.

Sequences and labels used below:
T1: CD73 on the surface of human tumor cells (human, UniProt P21589 27-549)
T1 chain: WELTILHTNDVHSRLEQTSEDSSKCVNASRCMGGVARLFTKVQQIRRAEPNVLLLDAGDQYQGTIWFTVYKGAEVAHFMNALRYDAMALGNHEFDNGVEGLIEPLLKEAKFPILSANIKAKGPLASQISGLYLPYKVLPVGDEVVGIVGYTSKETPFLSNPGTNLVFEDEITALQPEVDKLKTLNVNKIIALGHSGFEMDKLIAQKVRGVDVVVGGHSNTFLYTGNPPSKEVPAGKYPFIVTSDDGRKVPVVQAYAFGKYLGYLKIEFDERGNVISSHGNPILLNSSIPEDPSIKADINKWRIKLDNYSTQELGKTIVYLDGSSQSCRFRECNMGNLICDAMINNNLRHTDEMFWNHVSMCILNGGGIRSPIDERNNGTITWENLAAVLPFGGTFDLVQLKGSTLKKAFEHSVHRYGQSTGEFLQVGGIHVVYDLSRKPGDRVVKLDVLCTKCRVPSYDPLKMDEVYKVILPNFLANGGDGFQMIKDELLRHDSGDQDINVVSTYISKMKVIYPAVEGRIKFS

T2: Carbon-terminal polyhistidine-labeled recombinant cynomolgus monkey CD73 enzyme (cynomolgus monkey, UniProt A0A2K5V5U7 1-547)
T2 chain: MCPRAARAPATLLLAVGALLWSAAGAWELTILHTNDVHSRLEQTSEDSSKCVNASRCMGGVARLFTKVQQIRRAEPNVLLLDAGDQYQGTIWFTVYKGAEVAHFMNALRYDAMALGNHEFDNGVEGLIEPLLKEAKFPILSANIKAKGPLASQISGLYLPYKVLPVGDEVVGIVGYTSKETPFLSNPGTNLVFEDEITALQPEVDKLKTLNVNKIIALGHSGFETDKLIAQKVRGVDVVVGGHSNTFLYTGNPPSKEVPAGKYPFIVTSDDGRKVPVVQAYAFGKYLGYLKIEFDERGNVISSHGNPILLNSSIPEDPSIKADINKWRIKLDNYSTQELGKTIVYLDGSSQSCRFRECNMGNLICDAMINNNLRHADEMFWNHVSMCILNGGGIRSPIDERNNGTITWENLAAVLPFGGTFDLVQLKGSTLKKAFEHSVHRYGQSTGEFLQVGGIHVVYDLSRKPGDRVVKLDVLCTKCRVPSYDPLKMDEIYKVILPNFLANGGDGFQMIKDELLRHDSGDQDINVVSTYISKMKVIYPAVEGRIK

T3: extracellular domain of human CD73 protein (CD73-ECD), C-terminus polyhistidine-tagged (UniProt P21589 27-547)
T3 chain: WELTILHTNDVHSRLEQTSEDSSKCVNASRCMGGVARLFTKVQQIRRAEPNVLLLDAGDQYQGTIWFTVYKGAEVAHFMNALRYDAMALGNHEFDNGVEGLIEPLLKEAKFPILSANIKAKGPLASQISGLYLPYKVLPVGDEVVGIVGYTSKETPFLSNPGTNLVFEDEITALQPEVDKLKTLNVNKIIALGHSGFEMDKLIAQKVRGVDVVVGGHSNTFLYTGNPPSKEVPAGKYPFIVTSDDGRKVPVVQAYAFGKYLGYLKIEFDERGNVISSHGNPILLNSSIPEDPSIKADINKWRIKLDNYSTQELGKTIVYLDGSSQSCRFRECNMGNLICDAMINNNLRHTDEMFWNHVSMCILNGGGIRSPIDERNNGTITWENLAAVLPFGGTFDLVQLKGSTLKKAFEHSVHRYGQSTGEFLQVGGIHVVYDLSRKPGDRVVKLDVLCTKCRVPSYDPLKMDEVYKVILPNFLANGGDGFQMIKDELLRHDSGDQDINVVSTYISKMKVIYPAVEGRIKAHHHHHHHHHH

B1: Hu002c-16 (antibody, V domains shown)
VH: QVQLVQSGAEVKKPGASVKVSCKASGYTLTSYWMHWVKKAPGQGLEWIGEINPSQGRSNYNEKFKSKVTLTVDRSTSTVYMELSSLRSEDTAVYYCARRGVSGNYFDYWGQGTLVTVSS
VL: DIQMTQSPSSLSASVGDRVTITCKASQDINTYLSWFQQKPGKSPKSLIYRSNILVSGVPSRFSGSGSGQDYTLTISSLQPEDFAIYYCLQYDEFPYTFGGGTKLEI
B2: Hu002c-15 (antibody, V domains shown)
VH: B1 VH
VL: DIQMTQSPSSLSASVGDRVTITCKASQDINTYLSWFQQKPGKSPKSLIYRSNILVSGVPSRFSGSGSGQDYTLTISSLQPEDFATYYCLQYDEFPYTFGGGTKLEIK
B3: Hu002c-12 (antibody, V domains shown)
VH: B1 VH with K38R, K39Q
VL: B1 VL
B4: Hu002c-14 (antibody, V domains shown)
VH: B1 VH
VL: B2 VL with S43A, G100Q
B5: Hu002c-10 (antibody, V domains shown)
VH: B1 VH with K38R, K39Q
VL: B2 VL with S43A, G100Q
B6: Hu001c-15 (antibody, V domains shown)
VH: QVQLVQSGAEVKKPGASVKVSCKTSGYTFTNYYIYWVRQAPGQRLEWMGWIYPGNLNIKYNEKFKGRVTITADTSASTAYMELSSLRSEDTAVYYCARDDNYAWFAYWGQGTLVTVSS
VL: DIQMTQSPSSLSASVGDRVTITCKASQDVSTAVAWYQQKPGKSPKLLIYWTNTRHTGVPSRFSGSGSGTDHTLTISSLQPEDFATYYCQQHYSTPFTFGQGTKLEIK
B7: Hu002c-8 (antibody, V domains shown)
VH: B1 VH with K38R, K39Q, K67R
VL: B1 VL
B8: Hu002c-3 (antibody, V domains shown)
VH: B1 VH with K38R, K39Q, I48M, K67R, L70M, V72R, R74T
VL: B2 VL
B9: Hu002c-2 (antibody, V domains shown)
VH: B1 VH with K38R, K39Q, I48M, K67R, L70M, V72R, R74T
VL: B2 VL with S43A, G100Q
B10: Hu002c-4 (antibody, V domains shown)
VH: B1 VH with K38R, K39Q, I48M, K67R, L70M, V72R, R74T
VL: B1 VL
B11: Hu002c-7 (antibody, V domains shown)
VH: B1 VH with K38R, K39Q, K67R
VL: B2 VL
B12: Hu002c-6 (antibody, V domains shown)
VH: B1 VH with K38R, K39Q, K67R
VL: B2 VL with S43A, G100Q

The target of the first test is T1, CD73 on the surface of human tumor cells. The test can be described thus: FACS; NCI-H1299 cells, right table.
The molecule B1 gave a concentration for a half-maximal effect (EC50) of 0.86 nM.

In turn, B2 showed an EC50 of 0.804 nM.

Turning to B3, the 50% effective concentration (EC50) was found to be 0.82 nM.

B4 returned an EC50 of 0.822 nM.

B5 gave an EC50 of 0.758 nM.

The target of the next test is T2, Carbon-terminal polyhistidine-labeled …. The test can be described thus: enzyme inhibition; right table.
As for B6, the IC50 was found to be 0.05 nM.

Take B1: the half-maximal inhibitory concentration (IC50) was 0.072 nM.

On to B2, for which the IC50 was 0.074 nM.

For B3, the IC50 came to 0.058 nM.

Turning to B4, the half-maximal inhibitory concentration (IC50) is 0.056 nM.

As to B5, the half-inhibitory concentration (IC50) was found to be 0.059 nM.

The target is the same in another test. In words: enzyme inhibition; left table.
As to B6, the IC50 was found to be 0.1 nM.

On to B7, for which the IC50 stood at 0.041 nM.

For the molecule B8, the half-inhibitory concentration (IC50) was determined as 0.046 nM.

Consider B9, for which the IC50 amounted to 0.043 nM.

For B10, the half-maximal inhibitory concentration (IC50) came to 0.047 nM.

B11: the 50% inhibitory concentration (IC50) stood at 0.052 nM.

Regarding B12, the half-inhibitory concentration (IC50) was determined as 0.055 nM.

Another test addresses T3, extracellular domain of human CD73 …. In words: ELISA.
B6 returned a 50% effective concentration (EC50) of 0.115 nM.

The molecule B1 returned a 50% effective concentration (EC50) of 0.099 nM.

For B7, the EC50 came to 0.107 nM.

B2 returned a concentration for a half-maximal effect (EC50) of 0.104 nM.

B3: the response was half-maximal at 0.083 nM (EC50).

B8 came in with an EC50 of 0.089 nM.

On to B9, for which the EC50 was found to be 0.131 nM.

In turn, B10 had a concentration giving a half-maximal response (EC50) of 0.106 nM.

As to B11, the EC50 was determined as 0.098 nM.

In turn, B4 registered a 50% effective concentration (EC50) of 0.101 nM.

B5 had a concentration giving a half-maximal response (EC50) of 0.093 nM.

For B12, the EC50 was found to be 0.091 nM.

The next test has as its target T1, CD73 on the surface of human tumor cells. The test can be described thus: FACS; NCI-H1299 cells, left table.
For B7, the midpoint of the response, the EC50, lay at 0.91 nM.

For B8, the half-maximal effective concentration (EC50) was 0.902 nM.

Molecule B9 returned a concentration giving a half-maximal response (EC50) of 0.874 nM.

On to B10, for which the response was half-maximal at 0.873 nM (EC50).

Molecule B11 came in with a half-maximal effective concentration (EC50) of 0.829 nM.

Molecule B12 yielded a half-maximal effective concentration (EC50) of 0.836 nM.

For the next test the target is unchanged. In words: inhibition of cell-surface CD73 enzyme activity; right panel.
With B1, the IC50 was found to be 0.327 nM.

The molecule B2 had an IC50 of 0.591 nM.

Take B3: the IC50 worked out at 0.498 nM.

In the case of B4, the half-inhibitory concentration (IC50) was 0.437 nM.

B5: the IC50 was 0.441 nM.

For a further test the target is unchanged. The test can be described thus: FACS; MDA-MB-231 cells, left table.
As for B7, the response was half-maximal at 0.662 nM (EC50).

In turn, B8 returned an EC50 of 0.743 nM.

As to B9, the concentration giving a half-maximal response (EC50) was found to be 0.666 nM.

Regarding B10, it took 0.696 nM to reach a half-maximal effect (EC50).

B11 returned an EC50 of 0.659 nM.

Take B12: the EC50 was 0.69 nM.

The next test shares this target. In words: FACS; MDA-MB-231 cells, right table.
B1 registered a concentration giving a half-maximal response (EC50) of 0.632 nM.

Turning to B2, the EC50 stood at 0.717 nM.

As to B3, a half-maximal effect (EC50) was put at 0.715 nM.

Regarding B4, the midpoint of the response, the EC50, lay at 0.642 nM.

For the molecule B5, the EC50 is 0.702 nM.

The target is the same in a further test. The test can be described thus: inhibition of cell-surface CD73 enzyme activity; left panel.
For B7, the half-maximal inhibitory concentration (IC50) was 0.223 nM.

In the case of B8, the IC50 was 0.535 nM.

For B9, the IC50 came to 0.478 nM.

B10 gave an IC50 of 0.33 nM.

Take B11: the 50% inhibitory concentration (IC50) was determined as 0.279 nM.

B12 showed a half-inhibitory concentration (IC50) of 0.41 nM.

Another test addresses T3, extracellular domain of human CD73 …. The test can be described thus: enzyme inhibition; right table.
In turn, B6 displayed an IC50 of 0.02 nM.

On to B1, for which the IC50 was 0.068 nM.

Consider B2, for which the 50% inhibitory concentration (IC50) was 0.075 nM.

Regarding B3, the IC50 came to 0.057 nM.

In turn, B4 came in with an IC50 of 0.058 nM.

As for B5, the midpoint of inhibition, the IC50, lay at 0.059 nM.

A further test shares this target. In words: enzyme inhibition; left table.
In the case of B6, it took 0.04 nM to reach half-maximal inhibition (IC50).

In the case of B7, the IC50 came out at 0.025 nM.

Consider B8, for which half-maximal inhibition (IC50) required 0.036 nM.

Molecule B9 had a half-inhibitory concentration (IC50) of 0.042 nM.

Consider B10, for which the 50% inhibitory concentration (IC50) was 0.049 nM.

The molecule B11 showed a half-inhibitory concentration (IC50) of 0.028 nM.

B12 came in with an IC50 of 0.064 nM.
